How the values were obtained:
Experiment in all cases: phage ELISA
[1] = target: T1, lactate dehydrogenase (LDH)
T1 construct: Coated at 500 ng/well as non-specific target; also called LDH polypeptide
Description: (§1) For analysis of individual target binders, colonies were picked and phage prepared as described above using helper phage, M13KO7. Ninety-six-well microtiter plates were coated with 500 ng/well of specific target protein, 500 ng/well lactate dehydrogenase (LDH) irrelevant or non-specific target, 500 ng/well of positive control antibody raised against ETAG, and negative control of non-fat milk powder-PBS 2% at 4° C. overnight. Plates were then blocked with 350 microliters/well PBS containing 2% non-fat milk for 1 hr at room temperature. One hundred microliters per well of phage from isolated clones were added and plates were incubated at room temperature for 2 hr after centrifuging samples for 20 minutes at 3500 rpm at 4° C. The phage solution was then removed, and the wells were washed three times with PBS at room temperature. Antibody raised against M13 conjugated to horseradish peroxidase (Pharmacia) was diluted 1:3000 in PBS-Tween and added to each well (100 µl/well). Incubation was for 1 hr at room temperature, followed by washing with PBS-(0.5%) Tween 3 times as described. Color was developed by addition of ABTS solution (100 µl/well; Boehringer, Indianapolis, Ind.). Plates were analyzed at 405 nm. A clone was considered "positive" if the $A405$ of the well was $\geq$2-fold over background.

[2] = target: T2, antibody raised against ETAG
T2 construct: Coated at 500 ng/well; also called E-tag antibody
Description: as §1

DGI-2 polypeptide = target: T3, DGI-2 polypeptide (UniProt Q15004 1-111, limits assumed)
T3 construct: Soluble recombinant protein coated at 500 ng/well; vector tag of pIVEX2.3-MCS not described for this construct; also called KIAA0101
T3 sequence (looked up): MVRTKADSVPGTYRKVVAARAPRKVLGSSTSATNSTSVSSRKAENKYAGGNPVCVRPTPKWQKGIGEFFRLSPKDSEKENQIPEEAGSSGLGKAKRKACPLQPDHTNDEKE
Description: as §1

| Binder | LDH (OD) [1] | ETAG (OD) [2] | DGI-2 (OD) (DGI-2 polypeptide) | DGI-2/LDH (DGI-2 polypeptide) |
| --- | --- | --- | --- | --- |
| GSTRLRVTVRFCSETGTPGCAAAGAPVPYPDPLEPRP [DGI-2-20F-PP-G6] | 1.1 OD | 36.1 OD | 2.7 OD | 2.5 ratio |
| GLYQRGLAPRCRGERFGVRNAAAGAPVPYPDPLEPRP [DGI-2-20F-PP-C2] | 1.1 OD | 6 OD | 2.7 OD | 2.5 ratio |
| WVVALRRIRLGLRRGVECLLAAAGAPVPYPDPLEPRP [DGI-2-20F-PP-D5] | 1.2 OD | 33.6 OD | 2.7 OD | 2.3 ratio |
| TFTRDVAGPAVSFVRLHSWNAAAGAPVPYPDPLEPRP [DGI-2-20F-PP-A9] | 1.2 OD | 40.8 OD | 2.7 OD | 2.3 ratio |
| GGDLGEQGVQLCPDVVRGGSLAAAGAPVPYPDPLEPRP [DGI-2-20F-PP-A7] | 0.9 OD | 42.2 OD | 2.6 OD | 2.8 ratio |
| VGHLLSRCAHHSPGMGASPYGAAAGAPVPYPDPLEPRP [DGI-2-20F-PP-B11] | 1 OD | 40.8 OD | 2.6 OD | 2.7 ratio |
| DRHRAFVAEGLDGFRHSTGVAAAGAPVPYPDPLEPRP [DGI-2-20F-PP-D4] | 1.1 OD | 44 OD | 2.6 OD | 2.3 ratio |
| EGQRVVFLFGALVAGLCWRDRAAAGAPVPYPDPLEPRP [DGI-2-20F-PP-F3] | 1.1 OD | 18.7 OD | 2.6 OD | 2.2 ratio |
| PVYRVAMCRISVGCSAGAWFAAAGAPVPYPDPLEPRP [DGI-2-20F-PP-C12] | 0.9 OD | 36.4 OD | 2.5 OD | 2.9 ratio |
| LFRFSGTGMASLPCVGWHLVAAAGAPVPYPDPLEPRP [DGI-2-20F-PP-B6] | 1 OD | 37 OD | 2.5 OD | 2.6 ratio |
| CYLSRLFRSGQGIGQFGHVEAAAGAPVPYPDPLEPRP [DGI-2-20F-PP-A82] | 1.1 OD | 16.5 OD | 2.5 OD | 2.3 ratio |
| TPVAISIPAGVCSTSVCGRDAAAGAPVPYPDPLEPRP [DGI-2-20F-PP-C11] | 0.9 OD | 3.2 OD | 2.4 OD | 2.6 ratio |
| VTGTRFRGFAVACVRMGTWHAAAGAPVPYPDPLEPRP [DGI-2-20F-PP-F2] | 1 OD | 1.9 OD | 2.4 OD | 2.5 ratio |
| SLLCVVCRPVSGGRALGGVPAAAGAPVPYPDPLEPRP [DGI-2-20F-PP-B42] | 1 OD | 21.5 OD | 2.4 OD | 2.5 ratio |
| RRFVRCSVPVALRSAVPVSVAAAGAPVPYPDPLEPRP [DGI-2-20F-PP-A10] | 1 OD | 16.3 OD | 2.4 OD | 2.4 ratio |
| VSGVPDGSMRAAQLASGYWCAAAGAPVPYPDPLEPRP [DGI-2-20F-PP-G2] | 1.1 OD | 5.6 OD | 2.4 OD | 2.1 ratio |
| GASRVVDVGWRFWGKLWQRSAAAGAPVPYPDPLEPRP [DGI-2-20F-PP-G5] | 1.2 OD | 27.7 OD | 2.4 OD | 2 ratio |
| GGSLPVKSGQLVTCCTSKGGAAAGAPVPYPDPLEPRP [DGI-2-20F-PP-F5] | 0.9 OD | 16.3 OD | 2.3 OD | 2.5 ratio |

| Binder | LDH (OD) [1] | ETAG (OD) [2] | DGI-2 (OD) (DGI-2 polypeptide) | DGI-2/LDH (DGI-2 polypeptide) |
| --- | --- | --- | --- | --- |
| VVGYAQGDGLEGGLGSSRDGSAAAGAPVPYPDPLEPRP [DGI-2-20F-PP-D8] | 1.1 OD | 2.6 OD | 2.3 OD | 2.2 ratio |
| RQRSGGRWVVDRVTRVASTSPAAAGAPVPYPDPLEPRP [DGI-2-20F-PP-B12] | 1.1 OD | 1.9 OD | 2.3 OD | 2.2 ratio |
| SVTISTSCRTGCPAGYLRRDAAAGAPVPYPDPLEPRP [DGI-2-20F-PP-D2] | 0.7 OD | 30.8 OD | 2.2 OD | 3.1 ratio |
| VQSGRDLGGLLRGGTGTEASPAAAGAPVPYPDPLEPRP [DGI-2-20F-PP-D3] | 0.9 OD | 15 OD | 2.2 OD | 2.4 ratio |
| SVSGGGVFGTGGRVRHQVSGAAAGAPVPYPDPLEPRP [DGI-2-20F-PP-C5] | 0.9 OD | 33.9 OD | 2.2 OD | 2.4 ratio |
| VGQSSGDARPLANLFVFPFVAAAGAPVPYPDPLEPRP [DGI-2-20F-PP-F12] | 0.9 OD | 47.6 OD | 2.1 OD | 2.3 ratio |
| CCAWNGVGVGGLGWRVVVGPAAAGAPVPYPDPLEPRP [DGI-2-20F-PP-H4] | 1 OD | 32.9 OD | 2.1 OD | 2.2 ratio |
| SAFGCPLPRALGGGGARFYAAAAGAPVPYPDPLEPRP [DGI-2-20F-PP-E11] | 0.9 OD | 15.2 OD | 2 OD | 2.2 ratio |
| RISVGQCGTSRCGGGRRGGGAAAGAPVPYPDPLEPRP [DGI-2-20F-PP-D1] | 1.1 OD | 3 OD | 2 OD | 1.9 ratio |
| LLLPVRWRDAQPRSLLMEWIAAAGAPVPYPDPLEPRP [DGI-2-20F-PP-F8] | 1.1 OD | 7.6 OD | 2 OD | 1.9 ratio |
| MGADTCMGGKMPFDQMFGAVAAAGAPVPYPDPLEPRP [DGI-2-20F-PP-E10] | 1.2 OD | 44.6 OD | 2 OD | 1.7 ratio |
| KVWGCGARRGWERLGHLNQVAAAGAPVPYPDPLEPRP [DGI-2-20F-PP-B10] | 0.8 OD | 27.1 OD | 1.9 OD | 2.4 ratio |
| FRVALLSVSAGPCEGSGNTAAAGAPVPYPDPLEPRP [DGI-2-20F-PP-H7] | 0.8 OD | 3.7 OD | 1.8 OD | 2.1 ratio |
| FGSTAYADMLSQFRKFAMNISAAAGAPVPYPDPLEPRP [DGI-2-20F-PP-E1] | 1 OD | 33.4 OD | 1.8 OD | 1.9 ratio |
| FGRDGDGIQRRQGGFSWVGDRAAAGAPVPYPDPLEPRP [DGI-2-20F-PP-E2] | 0.7 OD | 11.6 OD | 1.7 OD | 2.4 ratio |
| RDHRYVGWGRATFRHDQSVWAAAGAPVPYPDPLEPRP [DGI-2-20F-PP-H1] | 1.2 OD | 1.4 OD | 1.7 OD | 1.4 ratio |
| SRGMAEAQFSAWPVLAVFPLAAAGAPVPYPDPLEPRP [DGI-2-20F-PP-H8] | 0.9 OD | 32.4 OD | 1.6 OD | 1.9 ratio |
